In publication PMC12412624, “Engineered Cas12j‐8 is a Versatile Platform for Multiplexed Genome Modulation in Mammalian Cells”:
Substitutions are numbered along the chain they refer to.

Experiments:
[1] = test system: T1, dCas12j-8 E609R E609R;D369A;E567A;D658A (bacteriophage (metagenome)); conditions: HEK293T cells; panel 1c (compare within a panel only); scale: mean GFP / mean GFP of wild type, printed, no background subtraction
T1 sequence: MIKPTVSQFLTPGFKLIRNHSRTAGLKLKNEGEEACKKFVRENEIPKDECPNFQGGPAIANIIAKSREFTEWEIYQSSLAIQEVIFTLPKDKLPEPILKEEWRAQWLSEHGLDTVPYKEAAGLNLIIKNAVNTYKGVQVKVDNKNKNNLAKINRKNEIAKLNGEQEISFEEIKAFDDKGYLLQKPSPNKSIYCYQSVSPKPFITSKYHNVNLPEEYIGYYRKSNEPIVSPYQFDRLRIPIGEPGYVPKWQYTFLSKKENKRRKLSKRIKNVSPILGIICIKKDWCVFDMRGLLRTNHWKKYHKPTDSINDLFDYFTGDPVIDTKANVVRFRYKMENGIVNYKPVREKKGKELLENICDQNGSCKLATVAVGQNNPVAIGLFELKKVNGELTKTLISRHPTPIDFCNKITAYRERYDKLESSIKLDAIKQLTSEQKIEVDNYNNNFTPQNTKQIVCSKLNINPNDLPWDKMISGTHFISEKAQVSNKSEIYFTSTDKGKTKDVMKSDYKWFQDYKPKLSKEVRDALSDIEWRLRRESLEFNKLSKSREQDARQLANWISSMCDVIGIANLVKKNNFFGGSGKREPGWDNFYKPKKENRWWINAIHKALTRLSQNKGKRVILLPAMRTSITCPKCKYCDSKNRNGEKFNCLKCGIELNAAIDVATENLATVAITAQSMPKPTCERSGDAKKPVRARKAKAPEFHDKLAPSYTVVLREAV

[2] = test system: T2, dCas12j-8 E419R E419R;D369A;E567A;D658A (bacteriophage (metagenome)); conditions: HEK293T cells; panel 1c (compare within a panel only); scale: mean GFP / mean GFP of wild type, printed, no background subtraction
T2 sequence: T1 sequence with E419R, R609E

[3] = test system: T3, dCas12j-8 E258R E258R;D369A;E567A;D658A (bacteriophage (metagenome)); conditions: HEK293T cells; panel 1c (compare within a panel only); scale: mean GFP / mean GFP of wild type, printed, no background subtraction
T3 sequence: T1 sequence with E258R, R609E

[4] = test system: T4, dCas12j-8 E258R+D313R+D495R+D527R+E547R E258R;D313R;D495R;D527R;E547R;D369A;E567A;D658A (bacteriophage (metagenome)); conditions: HEK293T cells; panel 1e (compare within a panel only); scale: mean GFP / mean GFP of wild type, printed, no background subtraction
T4 sequence: T1 sequence with E258R, D313R, D495R, D527R, E547R, R609E

CUUUCAAGACUAAUAGAUUGCUCCUUACGAGGAGACACUCCCUAUCAGUGAUAGAG / TTNACTCCCTATCAGTGATAGAG / CTCTATCACTGATAGGGAGTNAA [TetO]
binding signal [1]: 0.336 | binding signal [2]: 0.894 | binding signal [3]: 1.68 | binding signal [4]: 5.89
